Source: IntAct's records for PubMed 34606829

B1: ALK tyrosine kinase receptor (Homo sapiens), Q9UM73 (parent)
chain: MGAIGLLWLLPLLLSTAAVGSGMGTGQRAGSPAAGPPLQPREPLSYSRLQRKSLAVDFVVPSLFRVYARDLLLPPSSSELKAGRPEARGSLALDCAPLLRLLGPAPGVSWTAGSPAPAEARTLSRVLKGGSVRKLRRAKQLVLELGEEAILEGCVGPPGEAAVGLLQFNLSELFSWWIRQGEGRLRIRLMPEKKASEVGREGRLSAAIRASQPRLLFQIFGTGHSSLESPTNMPSPSPDYFTWNLTWIMKDSFPFLSHRSRYGLECSFDFPCELEYSPPLHDLRNQSWSWRRIPSEEASQMDLLDGPGAERSKEMPRGSFLLLNTSADSKHTILSPWMRSSSEHCTLAVSVHRHLQPSGRYIAQLLPHNEAAREILLMPTPGKHGWTVLQGRIGRPDNPFRVALEYISSGNRSLSAVDFFALKNCSEGTSPGSKMALQSSFTCWNGTVLQLGQACDFHQDCAQGEDESQMCRKLPVGFYCNFEDGFCGWTQGTLSPHTPQWQVRTLKDARFQDHQDHALLLSTTDVPASESATVTSATFPAPIKSSPCELRMSWLIRGVLRGNVSLVLVENKTGKEQGRMVWHVAAYEGLSLWQWMVLPLLDVSDRFWLQMVAWWGQGSRAIVAFDNISISLDCYLTISGEDKILQNTAPKSRNLFERNPNKELKPGENSPRQTPIFDPTVHWLFTTCGASGPHGPTQAQCNNAYQNSNLSVEVGSEGPLKGIQIWKVPATDTYSISGYGAAGGKGGKNTMMRSHGVSVLGIFNLEKDDMLYILVGQQGEDACPSTNQLIQKVCIGENNVIEEEIRVNRSVHEWAGGGGGGGGATYVFKMKDGVPVPLIIAAGGGGRAYGAKTDTFHPERLENNSSVLGLNGNSGAAGGGGGWNDNTSLLWAGKSLQEGATGGHSCPQAMKKWGWETRGGFGGGGGGCSSGGGGGGYIGGNAASNNDPEMDGEDGVSFISPLGILYTPALKVMEGHGEVNIKHYLNCSHCEVDECHMDPESHKVICFCDHGTVLAEDGVSCIVSPTPEPHLPLSLILSVVTSALVAALVLAFSGIMIVYRRKHQELQAMQMELQSPEYKLSKLRTSTIMTDYNPNYCFAGKTSSISDLKEVPRKNITLIRGLGHGAFGEVYEGQVSGMPNDPSPLQVAVKTLPEVCSEQDELDFLMEALIISKFNHQNIVRCIGVSLQSLPRFILLELMAGGDLKSFLRETRPRPSQPSSLAMLDLLHVARDIACGCQYLEENHFIHRDIAARNCLLTCPGPGRVAKIGDFGMARDIYRASYYRKGGCAMLPVKWMPPEAFMEGIFTSKTDTWSFGVLLWEIFSLGYMPYPSKSNQEVLEFVTSGGRMDPPKNCPGPVYRIMTQCWQHQPEDRPNFAIILERIEYCTQDPDVINTALPIEYGPLVEEEEKVPVRPKDPEGVPPLLVSQQAKREEERSPAAPPPLPTTSSGKAAKKPTAAEISVRVPRGPAVEGGHVNMAFSQSNPPSELHKVHGSRNKPTSLWNPTYGSWFTEKPTKKNNPIAKKEPHDRGNLGLEGSCTVPPNVATGRLPGASLLLEPSSLTANMKEVPLFRLRHFPCGNVNYGYQQQGLPLEAATAPGAGHYEDTILKSKNSMNQPGP
partner: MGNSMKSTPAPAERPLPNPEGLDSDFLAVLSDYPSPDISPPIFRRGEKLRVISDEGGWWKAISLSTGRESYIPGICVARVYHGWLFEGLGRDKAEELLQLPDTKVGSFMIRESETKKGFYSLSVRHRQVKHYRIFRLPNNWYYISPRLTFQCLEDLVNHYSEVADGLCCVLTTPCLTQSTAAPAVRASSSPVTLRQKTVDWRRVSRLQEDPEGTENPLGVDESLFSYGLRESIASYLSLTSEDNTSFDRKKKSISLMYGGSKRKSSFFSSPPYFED
B2: ALK tyrosine kinase receptor (Homo sapiens), Q9UM73 (parent)
chain: B1 chain
partner: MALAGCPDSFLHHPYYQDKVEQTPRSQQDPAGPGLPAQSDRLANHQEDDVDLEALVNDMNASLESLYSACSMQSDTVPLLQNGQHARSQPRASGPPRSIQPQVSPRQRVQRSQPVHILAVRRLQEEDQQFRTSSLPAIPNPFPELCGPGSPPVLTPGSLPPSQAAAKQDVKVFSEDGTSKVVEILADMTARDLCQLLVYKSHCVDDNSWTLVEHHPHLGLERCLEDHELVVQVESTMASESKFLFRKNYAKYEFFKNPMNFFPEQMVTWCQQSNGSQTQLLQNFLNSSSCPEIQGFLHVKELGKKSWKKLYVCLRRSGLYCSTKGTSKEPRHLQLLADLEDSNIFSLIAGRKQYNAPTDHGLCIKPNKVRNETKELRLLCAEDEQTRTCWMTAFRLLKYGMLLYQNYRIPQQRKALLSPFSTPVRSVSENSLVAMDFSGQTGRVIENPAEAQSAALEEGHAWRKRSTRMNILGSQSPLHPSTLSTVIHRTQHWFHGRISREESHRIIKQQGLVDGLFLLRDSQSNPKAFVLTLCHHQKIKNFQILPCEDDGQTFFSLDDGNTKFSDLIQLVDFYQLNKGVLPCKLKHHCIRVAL
B3: ALK tyrosine kinase receptor (Homo sapiens), Q9UM73 (parent)
chain: B1 chain
partner: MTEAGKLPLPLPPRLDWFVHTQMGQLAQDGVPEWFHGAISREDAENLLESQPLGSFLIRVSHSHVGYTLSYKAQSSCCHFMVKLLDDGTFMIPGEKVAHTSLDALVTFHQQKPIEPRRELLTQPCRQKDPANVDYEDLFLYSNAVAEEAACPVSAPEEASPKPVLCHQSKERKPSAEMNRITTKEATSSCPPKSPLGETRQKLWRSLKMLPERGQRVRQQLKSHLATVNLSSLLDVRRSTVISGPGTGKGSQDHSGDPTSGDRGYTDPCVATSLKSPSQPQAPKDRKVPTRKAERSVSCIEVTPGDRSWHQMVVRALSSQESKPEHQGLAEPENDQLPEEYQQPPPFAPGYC
B4: ALK tyrosine kinase receptor (Homo sapiens), Q9UM73 (parent)
chain: B1 chain
partner: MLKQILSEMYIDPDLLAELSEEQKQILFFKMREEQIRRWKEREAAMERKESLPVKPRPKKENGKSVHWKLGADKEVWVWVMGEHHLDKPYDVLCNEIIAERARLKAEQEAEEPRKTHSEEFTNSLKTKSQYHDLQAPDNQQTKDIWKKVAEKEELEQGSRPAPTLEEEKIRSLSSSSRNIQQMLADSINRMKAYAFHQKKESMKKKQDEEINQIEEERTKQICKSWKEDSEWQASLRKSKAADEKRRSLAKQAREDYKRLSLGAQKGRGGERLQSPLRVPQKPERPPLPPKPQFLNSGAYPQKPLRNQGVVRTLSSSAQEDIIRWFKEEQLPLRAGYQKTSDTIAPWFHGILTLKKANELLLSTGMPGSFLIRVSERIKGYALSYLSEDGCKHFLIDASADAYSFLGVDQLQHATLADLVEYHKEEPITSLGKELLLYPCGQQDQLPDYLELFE
B5: ALK tyrosine kinase receptor (Homo sapiens), Q9UM73 (parent)
chain: B1 chain
partner: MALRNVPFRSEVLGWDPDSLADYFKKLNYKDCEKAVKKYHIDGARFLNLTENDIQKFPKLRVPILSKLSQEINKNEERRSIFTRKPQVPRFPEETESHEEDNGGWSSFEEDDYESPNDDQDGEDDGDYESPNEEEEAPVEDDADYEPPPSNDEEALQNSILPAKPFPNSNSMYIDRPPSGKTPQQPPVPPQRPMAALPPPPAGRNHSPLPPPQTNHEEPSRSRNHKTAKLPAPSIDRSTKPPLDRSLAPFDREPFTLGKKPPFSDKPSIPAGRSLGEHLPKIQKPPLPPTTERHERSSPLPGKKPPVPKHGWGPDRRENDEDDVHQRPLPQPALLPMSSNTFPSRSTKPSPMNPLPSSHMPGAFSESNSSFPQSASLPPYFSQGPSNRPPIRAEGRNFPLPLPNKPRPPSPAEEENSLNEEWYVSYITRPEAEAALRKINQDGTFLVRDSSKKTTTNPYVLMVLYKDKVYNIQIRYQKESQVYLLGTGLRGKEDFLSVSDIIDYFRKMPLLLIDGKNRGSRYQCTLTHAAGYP
B6: ALK tyrosine kinase receptor (Homo sapiens), Q9UM73 (parent)
chain: B1 chain
partner: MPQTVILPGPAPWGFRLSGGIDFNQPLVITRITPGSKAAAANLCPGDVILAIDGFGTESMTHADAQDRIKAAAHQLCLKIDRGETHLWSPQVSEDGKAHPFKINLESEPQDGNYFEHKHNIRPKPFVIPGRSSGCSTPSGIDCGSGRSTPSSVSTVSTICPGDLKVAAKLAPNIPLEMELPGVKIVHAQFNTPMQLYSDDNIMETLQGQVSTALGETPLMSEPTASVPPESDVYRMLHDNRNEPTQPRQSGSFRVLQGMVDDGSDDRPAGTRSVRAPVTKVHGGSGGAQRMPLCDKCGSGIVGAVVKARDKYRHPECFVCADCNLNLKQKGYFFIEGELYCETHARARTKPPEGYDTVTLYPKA
B7: ALK tyrosine kinase receptor (Homo sapiens), Q9UM73 (parent)
chain: B1 chain
partner: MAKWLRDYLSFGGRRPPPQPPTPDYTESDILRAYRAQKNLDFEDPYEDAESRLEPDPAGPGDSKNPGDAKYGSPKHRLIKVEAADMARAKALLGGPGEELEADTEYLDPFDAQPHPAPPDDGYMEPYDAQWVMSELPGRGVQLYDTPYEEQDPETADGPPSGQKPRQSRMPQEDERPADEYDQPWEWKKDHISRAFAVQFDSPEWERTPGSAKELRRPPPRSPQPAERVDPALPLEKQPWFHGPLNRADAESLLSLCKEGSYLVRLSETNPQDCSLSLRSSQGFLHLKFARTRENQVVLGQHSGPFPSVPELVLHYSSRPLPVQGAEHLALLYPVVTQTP
B8: ALK tyrosine kinase receptor (Homo sapiens), Q9UM73 (parent)
chain: B1 chain
partner: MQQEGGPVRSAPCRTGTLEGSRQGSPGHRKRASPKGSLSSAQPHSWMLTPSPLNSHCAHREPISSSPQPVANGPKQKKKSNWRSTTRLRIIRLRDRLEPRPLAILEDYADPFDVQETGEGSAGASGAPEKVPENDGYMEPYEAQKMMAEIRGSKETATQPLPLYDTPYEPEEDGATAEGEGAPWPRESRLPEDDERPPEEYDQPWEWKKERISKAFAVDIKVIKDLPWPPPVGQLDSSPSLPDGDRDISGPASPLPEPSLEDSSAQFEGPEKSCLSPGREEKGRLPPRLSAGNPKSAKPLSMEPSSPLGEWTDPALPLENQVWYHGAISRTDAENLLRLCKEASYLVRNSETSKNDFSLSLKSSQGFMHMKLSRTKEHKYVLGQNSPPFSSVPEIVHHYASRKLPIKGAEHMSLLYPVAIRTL

Variants of: B1
Settings: with slap1_human SLA

Row | Variant | effect of a mutation on the interaction
1 | I1250T | decreasing interaction strength
2 | F1245C | increasing interaction strength
3 | L1196M | increasing interaction strength

Variants of: B2
Settings: with grb10_human GRB10, Q13322

Row | Variant | effect of a mutation on the interaction
4 | F1245C | increasing interaction strength
5 | L1196M | increasing interaction strength
6 | I1250T | decreasing interaction strength

Variants of: B3
Settings: with hsh2d_human HSH2D

Row | Variant | effect of a mutation on the interaction
7 | I1250T | decreasing interaction strength
8 | L1196M | increasing interaction strength
9 | F1245C | increasing interaction strength

Variants of: B4
Settings: with sh24a_human SH2D4A

Row | Variant | effect of a mutation on the interaction
10 | L1196M | increasing interaction strength
11 | I1250T | decreasing interaction strength
12 | F1245C | increasing interaction strength

Variants of: B5
Settings: with lcp2_human LCP2, Q13094

Row | Variant | effect of a mutation on the interaction
13 | L1196M | increasing interaction strength
14 | I1250T | decreasing interaction strength
15 | F1245C | increasing interaction strength

Variants of: B6
Settings: with pdli3_human PDLIM3, Q53GG5

Row | Variant | effect of a mutation on the interaction
16 | F1245C | increasing interaction strength
17 | L1196M | increasing interaction strength
18 | I1250T | decreasing interaction strength

Variants of: B7
Settings: with shd_human SHD

Row | Variant | effect of a mutation on the interaction
19 | F1245C | increasing interaction strength
20 | L1196M | increasing interaction strength
21 | I1250T | decreasing interaction strength

Variants of: B8
Settings: with shf_human SHF

Row | Variant | effect of a mutation on the interaction
22 | L1196M | increasing interaction strength
23 | I1250T | decreasing interaction strength
24 | F1245C | increasing interaction strength
